Laboratory results taken from the supplement of paper PMC5998384.

Experiments:
HeLa Kyoto [1] = assay: thermal stability score vs G1/S (z-score of summed log2 fold changes over temperatures); higher = more thermally stable than in G1/S
HeLa Kyoto [2] = assay: melting temperature (median over replicates), in situ; higher = more thermally stable
HeLa Kyoto [3] = assay: solubility change mitosis vs G1/S (difference of NP-40 vs SDS log2 ratios) (log2 ratio difference); higher = more soluble in mitosis
HeLa Kyoto [4] = assay: solubility in G1/S (NP-40 vs SDS abundance) (log2 ratio); higher = more soluble; details: cell cycle stage: G1/S
[5] = cell cycle stage: early G1 (4.5 h after nocodazole release)
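Wherever melting temperature (median over replicates), in situ is given: HeLa Kyoto cells synchronized by double thymidine or nocodazole block, proteins quantified by TMT10plex mass spectrometry, three independent biological replicates.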
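Wherever solubility change mitosis vs G1/S (difference of NP-40 vs SDS log2 ratios) is given: synchronized HeLa Kyoto cells (double thymidine block for G1/S, nocodazole release for mitosis), protein amounts in NP-40 versus SDS lysates quantified by mass spectrometry, three biological replicates.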
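Wherever solubility in G1/S (NP-40 vs SDS abundance) is given: HeLa Kyoto cells arrested at G1/S by double thymidine block, proteins quantified by TMT10plex mass spectrometry in mild NP-40 versus SDS extracts, three biological replicates.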
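Wherever thermal stability score vs G1/S (z-score of summed log2 fold changes over temperatures) is given: synchronized HeLa Kyoto cells, proteins quantified by TMT10plex mass spectrometry, three biological replicates, mitosis taken 0.5 h after nocodazole release, G1/S directly after double thymidine block.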

| Substance | thermal stability score (HeLa Kyoto [1]; [5]) | thermal stability score (HeLa Kyoto [1]; cell cycle stage: mitosis) | melting temperature (HeLa Kyoto [2]; cell cycle stage: G1/S) | melting temperature (HeLa Kyoto [2]; cell cycle stage: mitosis) | solubility change mitosis (log2) (HeLa Kyoto [3]) | solubility in G1/S (log2) (HeLa Kyoto [4]) |
| --- | --- | --- | --- | --- | --- | --- |
| MQMVPSLPPASECAGEEKRVGTRTVFVGNHPVSETEAYIAQRFCDNRIVSSKYTLWNFLPKNLFEQFRRIANFYFLIIFLVQVTVDTPTSPVTSGLPLFFVITVTAIKQGYEDCLRHRADNEVNKSTVYIIENAKRVRKESEKIKVGDVVEVQADETFPCDLILLSSCTTDGTCYVTTASLDGESNCKTHYAVRDTIALCTAESIDTLRAAIECEQPQPDLYKFVGRINIYSNSLEAVARSLGPENLLLKGATLKNTEKIYGVAVYTGMETKMALNYQGKSQKRSAVEKSINAFLIVYLFILLTKAAVCTTLKYVWQSTPYNDEPWYNQKTQKERETLKVLKMFTDFLSFMVLFNFIIPVSMYVTVEMQKFLGSFFISWDKDFYDEEINEGALVNTSDLNEELGQVDYVFTDKTGTLTENSMEFIECCIDGHKYKGVTQEVDGLSQTDGTLTYFDKVDKNREELFLRALCLCHTVEIKTNDAVDGATESAELTYISSSPDEIALVKGAKRYGFTFLGNRNGYMRVENQRKEIEEYELLHTLNFDAVRRRMSVIVKTQEGDILLFCKGADSAVFPRVQNHEIELTKVHVERNAMDGYRTLCVAFKEIAPDDYERINRQLIEAKMALQDREEKMEKVFDDIETNMNLIGATAVEDKLQDQAAETIEALHAAGLKVWVLTGDKMETAKSTCYACRLFQTNTELLELTTKTIEESERKEDRLHELLIEYRKKLLHEFPKSTRSFKKAWTEHQEYGLIIDGSTLSLILNSSQDSSSNNYKSIFLQICMKCTAVLCCRMAPLQKAQIVRMVKNLKGSPITLSIGDGANDVSMILESHVGIGIKGKEGRQAARNSDYSVPKFKHLKKLLLAHGHLYYVRIAHLVQYFFYKNLCFILPQFLYQFFCGFSQQPLYDAAYLTMYNICFTSLPILAYSLLEQHINIDTLTSDPRLYMKISGNAMLQLGPFLYWTFLAAFEGTVFFFGTYFLFQTASLEENGKVYGNWTFGTIVFTVLVFTVTLKLALDTRFWTWINHFVIWGSLAFYVFFSFFWGGIIWPFLKQQRMYFVFAQMLSSVSTWLAIILLIFISLFPEILLIVLKNVRRRSARRNLSCRRASDSLSARPSVRPLLLRTFSDESNVL [ATP11C] | -0.694 | -1.66 | 55.2 °C | 55 °C | -0.202 | -0.156 |
| LRP6 | -4.02 | -2.07 | 52.7 °C | 53.1 °C | 0.112 | 0.027 |
| MANSGCKDVTGPDEESFLYFAYGSNLLTERIHLRNPSAAFFCVARLQDFKLDFGNSQGKTSQTWHGGIATIFQSPGDEVWGVVWKMNKSNLNSLDEQEGVKSGMYVVIEVKVATQEGKEITCRSYLMTNYESAPPSPQYKKIICMGAKENGLPLEYQEKLKAIEPNDYTGKVSEEIEDIIKKGETQTL [GGCT] | -0.47 | -3.22 | 55.4 °C | 55.3 °C | -0.0992 | 0.302 |
| MAARVLIIGSGGREHTLAWKLAQSHHVKQVLVAPGNAGTACSEKISNTAISISDHTALAQFCKEKKIEFVVVGPEAPLAAGIVGNLRSAGVQCFGPTAEAAQLESSKRFAKEFMDRHGIPTAQWKAFTKPEEACSFILSADFPALVVKASGLAAGKGVIVAKSKEEACKAVQEIMQEKAFGAAGETIVIEELLDGEEVSCLCFTDGKTVAPMPPAQDHKRLLEGDGGPNTGGMGAYCPAPQVSNDLLLKIKDTVLQRTVDGMQQEGTPYTGILYAGIMLTKNGPKVLEFNCRFGDPECQVILPLLKSDLYEVIQSTLDGLLCTSLPVWLENHTALTVVMASKGYPGDYTKGVEITGFPEAQALGLEVFHAGTALKNGKVVTHGGRVLAVTAIRENLISALEEAKKGLAAIKFEGAIYRKDVGFRAIAFLQQPRSLTYKESGVDIAAGNMLVKKIQPLAKATSRSGCKVDLGGFAGLFDLKAAGFKDPLLASGTDGVGTKLKIAQLCNKHDTIGQDLVAMCVNDILAQGAEPLFFLDYFSCGKLDLSVTEAVVAGIAKACGKAGCALLGGETAEMPDMYPPGEYDLAGFAVGAMERDQKLPHLERITEGDVVVGIASSGLHSNGFSLVRKIVAKSSLQYSSPAPDGCGDQTLGDLLLTPTRIYSHSLLPVLRSGHVKAFAHITGGGLLENIPRVLPEKLGVDLDAQTWRIPRVFSWLQQEGHLSEEEMARTFNCGVGAVLVVSKEQTEQILRDIQQHKEEAWVIGSVVARAEGSPRVKVKNLIESMQINGSVLKNGSLTNHFSFEKKKARVAVLISGTGSNLQALIDSTREPNSSAQIDIVISNKAAVAGLDKAERAGIPTRVINHKLYKNRVEFDSAIDLVLEEFSIDIVCLAGFMRILSGPFVQKWNGKMLNIHPSLLPSFKGSNAHEQALETGVTVTGCTVHFVAEDVDAGQIILQEAVPVKRGDTVATLSERVKLAEHKIFPAALQLVASGTVQLGENGKICWVKEE [GART] | 0.0198 | 0.936 | 50.8 °C | 51 °C | -0.137 | 0.201 |
| MDEQAGPGVFFSNNHPGAGGAKGLGPLAEAAAAGDGAAAAGAARAQYSLPGILHFLQHEWARFEVERAQWEVERAELQAQIAFLQGERKGQENLKKDLVRRIKMLEYALKQERAKYHKLKYGTELNQGDMKPPSYDSDEGNETEVQPQQNSQLMWKQGRQLLRQYLQEVGYTDTILDVKSKRVRALLGFSSDVTDREDDKNQDSVVNGTEAEVKETAMIAKSELTDSASVLDNFKFLESAAADFSDEDEDDDVDGREKSVIDTSTIVRKKALPDSGEDRDTKEALKEFDFLVTSEEGDNESRSAGDGTDWEKEDQCLMPEAWNVDQGVITKLKEQYKKERKGKKGVKRPNRSKLQDMLANLRDVDELPSLQPSVGSPSRPSSSRLPEHEINRADEVEALTFPPSSGKSFIMGADEALESELGLGELAGLTVANEADSLTYDIANNKDALRKTWNPKFTLRSHFDGIRALAFHPIEPVLITASEDHTLKMWNLQKTAPAKKSTSLDVEPIYTFRAHKGPVLCVVMSSNGEQCYSGGTDGLIQGWNTTNPNIDPYDSYDPSVLRGPLLGHTDAVWGLAYSAAHQRLLSCSADGTLRLWNTTEVAPALSVFNDTKELGIPASVDLVSSDPSHMVASFSKGYTSIFNMETQQRILTLESNVDTTANSSCQINRVISHPTLPISITAHEDRHIKFYDNNTGKLIHSMVAHLEAVTSLAVDPNGLYLMSGSHDCSIRLWNLESKTCIQEFTAHRKKFEESIHDVAFHPSKCYIASAGADALAKVFV [STRN] | 0.0936 | -0.463 | 52.4 °C | 52.3 °C | -0.134 | 0.0488 |
| MAEGTAEAPLENGGGGDSGAGALERGVAPIKRQYLTTKEQFHQFLEAKGQEKTCRETEVGDPAGNELAEPEAKRIRLEDGQTADGQTEEAAEPGEQLQTQKRARGQNKGRPHVKPTNYDKNRLCPSLIQESAAKCFFGDRCRFLHDVGRYLETKPADLGPRCVLFETFGRCPYGVTCRFAGAHLRPEGQNLVQEELAARGTQPPSIRNGLDKALQQQLRKREVRFERAEQALRRFSQGPTPAAAVPEGTAAEGAPRQENCGAQQVPAGPGTSTPPSSPVRTCGPLTDEDVVRLRPCEKKRLDIRGKLYLAPLTTCGNLPFRRICKRFGADVTCGEMAVCTNLLQGQMSEWALLKRHQCEDIFGVQLEGAFPDTMTKCAELLSRTVEVDFVDINVGCPIDLVYKKGGGCALMNRSTKFQQIVRGMNQVLDVPLTVKIRTGVQERVNLAHRLLPELRDWGVALVTLHGRSREQRYTKLADWQYIEECVQAASPMPLFGNGDILSFEDANRAMQTGVTGIMIARGALLKPWLFTEIKEQRHWDISSSERLDILRDFTNYGLEHWGSDTQGVEKTRRFLLEWLSFLCRYVPVGLLERLPQRINERPPYYLGRDYLETLMASQKAADWIRISEMLLGPVPPSFAFLPKHKANAYK [DUS3L] | 1.52 | 2.59 | 49 °C | 48.5 °C | -0.0331 | -0.0832 |
| MSSSGLNSEKVAALIQKLNSDPQFVLAQNVGTTHDLLDICLKRATVQRAQHVFQHAVPQEGKPITNQKSSGRCWIFSCLNVMRLPFMKKLNIEEFEFSQSYLFFWDKVERCYFFLSAFVDTAQRKEPEDGRLVQFLLMNPANDGGQWDMLVNIVEKYGVIPKKCFPESYTTEATRRMNDILNHKMREFCIRLRNLVHSGATKGEISATQDVMMEEIFRVVCICLGNPPETFTWEYRDKDKNYQKIGPITPLEFYREHVKPLFNMEDKICLVNDPRPQHKYNKLYTVEYLSNMVGGRKTLYNNQPIDFLKKMVAASIKDGEAVWFGCDVGKHFNSKLGLSDMNLYDHELVFGVSLKNMNKAERLTFGESLMTHAMTFTAVSEKDDQDGAFTKWRVENSWGEDHGHKGYLCMTDEWFSEYVYEVVVDRKHVPEEVLAVLEQEPIILPAWDPMGALAE [BLMH] | -1.55 | -0.29 | 58.1 °C | 59 °C | -0.251 | -0.128 |
| MSDNGELEDKPPAPPVRMSSTIFSTGGKDPLSANHSLKPLPSVPEEKKPRHKIISIFSGTEKGSKKKEKERPEISPPSDFEHTIHVGFDAVTGEFTGMPEQWARLLQTSNITKLEQKKNPQAVLDVLKFYDSNTVKQKYLSFTPPEKDGFPSGTPALNAKGTEAPAVVTEEEDDDEETAPPVIAPRPDHTKSIYTRSVIDPVPAPVGDSHVDGAAKSLDKQKKKTKMTDEEIMEKLRTIVSIGDPKKKYTRYEKIGQGASGTVFTATDVALGQEVAIKQINLQKQPKKELIINEILVMKELKNPNIVNFLDSYLVGDELFVVMEYLAGGSLTDVVTETCMDEAQIAAVCRECLQALEFLHANQVIHRDIKSDNVLLGMEGSVKLTDFGFCAQITPEQSKRSTMVGTPYWMAPEVVTRKAYGPKVDIWSLGIMAIEMVEGEPPYLNENPLRALYLIATNGTPELQNPEKLSPIFRDFLNRCLEMDVEKRGSAKELLQHPFLKLAKPLSSLTPLIMAAKEAMKSNR [PAK2] | -1.97 | -1.45 | 54.9 °C | 54.6 °C | -0.119 | 0.152 |
| MAFPPRRRLRLGPRGLPLLLSGLLLPLCRAFNLDVDSPAEYSGPEGSYFGFAVDFFVPSASSRMFLLVGAPKANTTQPGIVEGGQVLKCDWSSTRRCQPIEFDATGNRDYAKDDPLEFKSHQWFGASVRSKQDKILACAPLYHWRTEMKQEREPVGTCFLQDGTKTVEYAPCRSQDIDADGQGFCQGGFSIDFTKADRVLLGGPGSFYWQGQLISDQVAEIVSKYDPNVYSIKYNNQLATRTAQAIFDDSYLGYSVAVGDFNGDGIDDFVSGVPRAARTLGMVYIYDGKNMSSLYNFTGEQMAAYFGFSVAATDINGDDYADVFIGAPLFMDRGSDGKLQEVGQVSVSLQRASGDFQTTKLNGFEVFARFGSAIAPLGDLDQDGFNDIAIAAPYGGEDKKGIVYIFNGRSTGLNAVPSQILEGQWAARSMPPSFGYSMKGATDIDKNGYPDLIVGAFGVDRAILYRARPVITVNAGLEVYPSILNQDNKTCSLPGTALKVSCFNVRFCLKADGKGVLPRKLNFQVELLLDKLKQKGAIRRALFLYSRSPSHSKNMTISRGGLMQCEELIAYLRDESEFRDKLTPITIFMEYRLDYRTAADTTGLQPILNQFTPANISRQAHILLDCGEDNVCKPKLEVSVDSDQKKIYIGDDNPLTLIVKAQNQGEGAYEAELIVSIPLQADFIGVVRNNEALARLSCAFKTENQTRQVVCDLGNPMKAGTQLLAGLRFSVHQQSEMDTSVKFDLQIQSSNLFDKVSPVVSHKVDLAVLAAVEIRGVSSPDHVFLPIPNWEHKENPETEEDVGPVVQHIYELRNNGPSSFSKAMLHLQWPYKYNNNTLLYILHYDIDGPMNCTSDMEINPLRIKISSLQTTEKNDTVAGQGERDHLITKRDLALSEGDIHTLGCGVAQCLKIVCQVGRLDRGKSAILYVKSLLWTETFMNKENQNHSYSLKSSASFNVIEFPYKNLPIEDITNSTLVTTNVTWGIQPAPMPVPVWVIILAVLAGLLLLAVLVFVMYRMGFFKRVRPPQEEQEREQLQPHENGEGNSET [ITGAV] | -1.75 | -1.34 | 56 °C | 54.8 °C | -0.152 | 0.295 |
